A short description of this series: self-splicing fitness, log relative to wild type (ln ratio); higher = more splicing; Tetrahymena group I intron in knt gene, E. coli kanamycin selection, DiMSum; sequences stand for … in CUCUCU…GGAGGGAAAAGUUAUCAGGCAUGCACCUGGUAGCUAGUCUUUAAACCAAUAGAUUGCAUCGGUUUAAAAGGCAAGACCGUCAAAUUGCGGGAAAGGGGUCAACAGCCGUUCAGUACCAAGUCUCAGGGGAAACUUUGAGAUGGCCUUGCAAAGGGUAUGGUAAUAAGCUGACGGACAUGGUCCUAACCACGCAGCCAAGUCCUAAGUCAACAGAUCUUCUGUUGAUAUGGAUGCAGUUCACAGACUAAAUGUCGGUCGGGGAAGAUGUAUUCUUCUCAUAAGAUAUAGUCGGACCUCUCCUUAAUGGGAGCUAGCGGAUGAAGUGAUGCAACACUGGAGCCGCUGGGAACUAAUUUGUAUGCGAAAGUAUAUUGAUUAGUUUUGGAGUACUCGUGGUCG
Put shortly: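 DiMSum derived fitness as the error-weighted combination of fold changes across replicates, kanamycin versus no kanamycin, normalised to wild type. E. coli BL21(DE3) held the library, which randomised all eight P1ex-region intron nucleotides within the knt kanamycin-resistance gene on pET-22b(+). Six replicate transformations grew overnight at 37°C or 30°C on LB agar with or without 25 μg/mL kanamycin, also containing 100 μg/mL carbenicillin, 50 μM IPTG and 0.2% rhamnose, and pooled colonies were amplicon-sequenced on an Illumina HiSeq 2500.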

This note sets out measurements from the supplement of paper PMC7877785.

± gives the uncertainty stated by the source.

Consider ACGCAGCAAUAUUACGCCAG, for which the “self-splicing fitness (ln)” value reads like this: (30 °C) -2.82 ± 0.22; (37 °C) -2.07 ± 0.28.

Take CCCGAGCAAUAUUACGUUGU: the “self-splicing fitness (ln)” value (30 °C) was -3.46 ± 0.14 and the “self-splicing fitness (ln)” value (37 °C) is -2.73 ± 0.19.

As for GCUUAGCAAUAUUACGCCUG, the “self-splicing fitness (ln)” value is -2.35 ± 0.14 (30 °C) and -1.02 ± 0.13 (37 °C).

As for UACUAGCAAUAUUACGCGGU, the “self-splicing fitness (ln)” value is -3.43 ± 0.47 (30 °C) and -2.52 ± 0.33 (37 °C). The matching figures for GAGUAGCAAUAUUACGCAGG: -3.04 ± 0.22 and -3.26 ± 0.24. CCAUAGCAAUAUUACGACAU: the “self-splicing fitness (ln)” value runs as follows: (30 °C) -3.882 ± 0.026; (37 °C) -2.93 ± 0.04. Consider CUUUAGCAAUAUUACGCUAA, for which the “self-splicing fitness (ln)” value runs as follows: (30 °C) -4.31 ± 0.46; (37 °C) -3.2 ± 0.47. The matching figures for AACAAGCAAUAUUACGCUAU: -2.25 ± 0.075 and -1.52 ± 0.074. For CGCUAGCAAUAUUACGGUCG the same measures were -2.53 ± 0.1 and -2.03 ± 0.13. The matching figures for AAAUAGCAAUAUUACGCAUC: -3.65 ± 0.47 and -0.111 ± 0.22.

On to AUUAAGCAAUAUUACGGAGU, for which the “self-splicing fitness (ln)” value was -1.69 ± 0.14 (30 °C) and -0.962 ± 0.15 (37 °C). In the case of GACGAGCAAUAUUACGCGAC, the “self-splicing fitness (ln)” value by setting is: (30 °C) -2.09 ± 0.26; (37 °C) -1.04 ± 0.27.

As for GAGCAGCAAUAUUACGCUUU, the “self-splicing fitness (ln)” value is -1.94 ± 0.18 (30 °C) and -2.5 ± 0.26 (37 °C). The matching figures for CGCUAGCAAUAUUACGCAGA: -3.28 ± 0.45 and -2.38 ± 0.36. Take UCUAAGCAAUAUUACGAUUG: the “self-splicing fitness (ln)” value (30 °C) was -3.4 ± 0.18 and the “self-splicing fitness (ln)” value (37 °C) was -2.26 ± 0.17.

Take UAAGAGCAAUAUUACGGUAG: where the note is “37 °C”, the “self-splicing fitness (ln)” value is -2.57 ± 0.35. For ACUAAGCAAUAUUACGAACU, the “self-splicing fitness (ln)” value is -0.447 ± 0.083 (30 °C) and 0.532 ± 0.1 (37 °C). Turning to GAAGAGCAAUAUUACGUUAU, the “self-splicing fitness (ln)” value reads like this: (30 °C) -3.85 ± 0.25; (37 °C) -1.47 ± 0.2. The matching figures for CAUCAGCAAUAUUACGACCG: -0.142 ± 0.086 and 0.366 ± 0.12. The matching figures for AACCAGCAAUAUUACGUGGU: -3.19 ± 0.12 and -3.15 ± 0.17. For GAGUAGCAAUAUUACGGGCU the same measures were -1.43 ± 0.17 and -1.94 ± 0.16. Take GUGUAGCAAUAUUACGUAGG: the “self-splicing fitness (ln)” value is, setting by setting: (30 °C) -2.66 ± 0.18; (37 °C) -1.5 ± 0.18.

UUAUAGCAAUAUUACGUUAG: the “self-splicing fitness (ln)” value reads like this: (30 °C) -1.1 ± 0.12; (37 °C) -0.717 ± 0.14.

Regarding UCAAAGCAAUAUUACGUGUC, the “self-splicing fitness (ln)” value (30 °C) was -3.25 ± 0.22 and the “self-splicing fitness (ln)” value (37 °C) is -1.69 ± 0.19. The matching figures for AUUGAGCAAUAUUACGGCAG: -2.56 ± 0.18 and -1.38 ± 0.27. Take GUAAAGCAAUAUUACGUCCU: the “self-splicing fitness (ln)” value by setting is: (30 °C) 0.164 ± 0.11; (37 °C) 0.663 ± 0.16.

For CGUGAGCAAUAUUACGGGCU, the “self-splicing fitness (ln)” value is, setting by setting: (30 °C) -1.5 ± 0.18; (37 °C) -2.67 ± 0.39. For GGAAAGCAAUAUUACGUGCG the same measures were -0.344 ± 0.11 and -0.596 ± 0.12.

Turning to GGCUAGCAAUAUUACGGAAC, the “self-splicing fitness (ln)” value is, setting by setting: (30 °C) -1.09 ± 0.1; (37 °C) -0.447 ± 0.13. The matching figures for UUCAAGCAAUAUUACGGGGC: -3.6 ± 0.27 and -2.8 ± 0.33. Take CAUAAGCAAUAUUACGCCCU: the “self-splicing fitness (ln)” value (30 °C) was -2.76 ± 0.43 and the “self-splicing fitness (ln)” value (37 °C) was -2.4 ± 0.49.

As for AACAAGCAAUAUUACGUGCA, the “self-splicing fitness (ln)” value is -0.969 ± 0.048 (30 °C) and -0.28 ± 0.065 (37 °C). Consider AGCCAGCAAUAUUACGCGCG, for which the “self-splicing fitness (ln)” value is -1.15 ± 0.075 (30 °C) and -0.281 ± 0.076 (37 °C). The matching figures for GUCUAGCAAUAUUACGUUAC: -0.99 ± 0.099 and -0.771 ± 0.096. For AGCUAGCAAUAUUACGCCAG the same measures were -3.78 ± 0.36 and -2.27 ± 0.35.

Consider CAAUAGCAAUAUUACGAGUA, for which the “self-splicing fitness (ln)” value reads like this: (30 °C) -2.31 ± 0.21; (37 °C) -2.38 ± 0.2. In the case of CAGAAGCAAUAUUACGACAA, the “self-splicing fitness (ln)” value runs as follows: (30 °C) -2.84 ± 0.36; (37 °C) -1.88 ± 0.31. Take CUAUAGCAAUAUUACGAUCA: the “self-splicing fitness (ln)” value by setting is: (30 °C) -3.08 ± 0.33; (37 °C) 0.388 ± 0.31.
